Measurements as given in patent publication US20230192902A1 (KENJOCKETY BIOTECHNOLOGY, published 2023).

Biological target: T1, human ABCG2 (human, UniProt Q9UNQ0 1-655)
T1 construct: also called CD388; BCRP
T1 sequence: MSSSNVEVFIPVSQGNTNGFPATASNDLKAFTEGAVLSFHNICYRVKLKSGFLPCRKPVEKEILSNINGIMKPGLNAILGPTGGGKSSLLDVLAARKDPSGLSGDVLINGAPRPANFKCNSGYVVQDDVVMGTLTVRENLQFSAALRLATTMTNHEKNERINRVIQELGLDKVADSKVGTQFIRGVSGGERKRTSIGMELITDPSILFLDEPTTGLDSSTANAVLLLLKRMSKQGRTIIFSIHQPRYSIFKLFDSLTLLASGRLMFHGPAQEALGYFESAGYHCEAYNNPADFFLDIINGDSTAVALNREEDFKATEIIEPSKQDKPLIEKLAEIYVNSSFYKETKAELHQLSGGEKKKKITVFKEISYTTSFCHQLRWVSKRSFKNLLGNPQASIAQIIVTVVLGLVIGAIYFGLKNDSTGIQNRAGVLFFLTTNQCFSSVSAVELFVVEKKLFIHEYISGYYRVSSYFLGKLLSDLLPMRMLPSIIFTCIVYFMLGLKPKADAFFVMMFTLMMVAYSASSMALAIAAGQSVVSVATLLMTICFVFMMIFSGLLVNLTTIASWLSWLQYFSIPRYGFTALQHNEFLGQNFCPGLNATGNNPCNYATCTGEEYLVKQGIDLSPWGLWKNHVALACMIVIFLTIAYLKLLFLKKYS
Assay: flow cytometry on 293T cells stably expressing human ABCG2

B1: anti-ABCG2 antibody 5D3 (antibody, V domains shown)
VH: QVQLQESGPGLVKPSQSLSLTCTVTGFSITSDYAWNWIRQFPGKKLEWMGYINFDGGTTYNPSLRGRISITRDTSKNQFFLQLRSVTPEDTATYYCATFYGAKGTLDYWGQGTSVTVSS
VL: DIVLTQSPSSFSVSLGDRVTISCKASGYILNRLAWYQQKPGNAPRLLISGATSLETGFPSRFSGTGSGKDYTLSISSLQTEDVGTYYCQQYWSTPWTFGGGTKLEIR
- binding result: binds
